# T1: iron-sulfur cluster assembly (ISCU) protein, Q9H1K1
# T1 chain: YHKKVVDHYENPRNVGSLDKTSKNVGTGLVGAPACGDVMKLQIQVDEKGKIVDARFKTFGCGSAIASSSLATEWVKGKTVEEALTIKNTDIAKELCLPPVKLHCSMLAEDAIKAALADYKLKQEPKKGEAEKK
# B1: glutathione S-transferase P (GSTP1) (protein)
# chain: PPYTVVYFPVRGRCAALRMLLADQGQSWKEEVVTVETWQEGSLKASCLYGQLPKFQDGDLTLYQSNTILRHLGRTLGLYGKDQQEAALVDMVNDGVEDLRCKYISLIYTNYEAGKDDYVKALPGQLKPFETLLSQNQGGKTFIVGDQISFADYNLLDLLLIHEVLAPGCLDAFPLLSAYVGRLSARPKLKAFLASPEYVNLPINGNGKQ
# Target: T1, iron-sulfur cluster assembly (ISCU) …
protein,measurement,value
B1,ISCU glutathionylation (α-GSH immunoblot after α-ISCU immunoprecipitation) in PAECs with GSTP1 knockdown,"with GSTP1 knockdown, α-ISCU immunoprecipitation revealed a concomitant reduction of GSTP1 pulldown and glutathionylated ISCU in favor of non-glutathionylated ISCU"
